Reference: patent US20140370516, “DIAGNOSIS OF TUBERCULOSIS” (CSIR, published 2014)

Tests used:
CFP-10 (monomer) [1] = target: T1, CFP-10 (monomer) (Mycobacterium tuberculosis, UniProt P9WNK5 P9WNK5:2-100); assay: ELONA; affinity comparable to 90-mer; details: two predicted stem-loops
[2] = target: T2, CFP-10.ESAT-6 heterodimer (Mycobacterium tuberculosis, UniProt P9WNK5;P9WNK7 P9WNK5:2-100,P9WNK7:2-95); assay: ELONA; slightly higher affinity than 90-mer (P<0.05); details: two predicted stem-loops
[3] = target: T3, EsxGH heterodimer (ESX-3 secretion system) (UniProt O53692;P9WNK3 O53692:2-97,P9WNK3:1-96); assay: ELONA; details: label: biotin
T3 sequence 1: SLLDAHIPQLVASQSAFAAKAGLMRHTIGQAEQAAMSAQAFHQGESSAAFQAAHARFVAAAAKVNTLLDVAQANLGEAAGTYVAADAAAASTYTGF
T3 sequence 2: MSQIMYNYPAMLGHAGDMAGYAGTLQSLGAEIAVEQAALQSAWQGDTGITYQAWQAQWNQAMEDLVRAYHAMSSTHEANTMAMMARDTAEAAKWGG
Procedure: (§1) For each binding assay, 96 well micro-titre plates (Corning, Adcock Ingram) were coated with the CFP-10.ESAT-6 heterodimer in a 10 mM NaHCO₃ buffer pH 8.5 (Sigma) and left overnight at 4° C. The plates were then washed with 1× phosphate buffered saline containing 0.005% Tween 20 (PBS-T) pH7 (Sigma) and blocked with a 5% fat free milk solution for 1 hour at 4° C. The plates were then washed 3 times with a 1×PBS after which 150 nM biotinylated aptamer was added and incubated for 2 hours at room temperature. This was followed by three wash steps with 1×PBS-T and the addition to HRP-conjugated streptavidin (diluted 1:10000 in 1×PBS-T) and incubated for two hours at 37° C. The plates were then washed four more times with 1×PBS-T, after which a final 3,3′,5,5′-tetramethylbenzidine (TMB) detection substrate (Separations) was added. […] The reaction was stopped with a 2 M sulphuric acid solution (Merck), resulting in a colour change from blue to yellow. The plates were read on the MultiSkan Go plate reader (ThermoScientific, AEC-Amersham) at a wavelength of 450 nm. […] Each aptamer was done in triplicate and the repeats were averaged and the standard deviation calculated. Each aptamer was tested twice in triplicate to ensure accuracy. The aptamers were then compared to the aptamer alone control using a Student t-test statistical analysis to obtain the p value for significance.
(§2) Selected ssDNA aptamers were tested for binding specificity to the ESAT-6 and CFP-10 monomers. The aptamers were tested for binding using ELONA to CFP-10, ESAT-6, CFP-10.ESAT-6 heterodimer, a CFP-10.ESAT-6 related protein in the ESX3 secretion system (EsxGH complex) and a HIV surface glycoprotein (gp120). EsxGH is an ESAT-6 family related protein that is encoded and secreted by the ESX-3 secretion system and gp120 is a HIV glycoprotein which is unrelated to the Mtb antigens.

ESAT-6 (monomer) = ESAT-6 (monomer) (Mycobacterium tuberculosis, UniProt P9WNK7 P9WNK7:2-95); assay: ELONA; details: label: biotin
Procedure: as §1, §2

CFP-10 (monomer) [4] = target: T1, CFP-10 (monomer); assay: ELONA, 150 nM aptamer; details: label: biotin
[5] = target: T2, CFP-10.ESAT-6 heterodimer; assay: ELONA, 150 nM aptamer; binding abrogated by anti-ESAT-6 mAb; details: label: biotin
Procedure: as §1, with “The assay was modified from an ELISA protocols for determination of aptamer-protein interactions and has been termed an ELONA. Unique aptamer clones identified by sequencing were tested for their individual binding characteristic to the CFP-10.ESAT-6 heterodimer using an ELONA. Each ssDNA aptamer was prepared using the exonuclease method as described above with minor modifications, in that all aptamers were prepared with the biotinylated forward primer. For” for “For”
The antibody competition binding was done using the ELONA method described above with minor modifications.

CFP-10 (monomer) [6] = target: T1, CFP-10 (monomer); assay: SPR; CFP-10 immobilised on CM5 chip; also bound in ELONA; details: label: biotin; three predicted stem-loops
Procedure: (§3) FIG. 7 illustrates kinetic studies of 5 of the best aptamers. CFP-10 attached to a CM5 chip was used to capture the respective anti-CFP-10.ESAT-6 aptamers. The respective aptamers were injected at different concentrations at a flow rate of 10 μl/min for 5 minutes and allowed to dissociate for 10 minutes;
(§4) To determine the binding affinity of aptamers to the M.tb antigens, all four flow cells on a CM5 chip (BIAcore, Separations Scientific) were activated with EDC:NHS (BIAcore, Separations Scientific). CFP-10 was bound to three of the four flow cells by injecting 50 μl of 50 μg/ml CFP-10 over them. Ethanolamine (BIAcore, Separations Scientific) was then injected over all four flow cells to quench any remaining active sites. Partially bound or unbound protein was removed by a wash with 10 μl of a 10 mM NaOH solution. Different concentrations of the respective aptamers (0 nM, 31 nM, 62 nM, 125 nM, 250 nM, and 500 nM) were randomly injected over all four flow cells at a flow rate of 10 μl/min for 5 minutes. The respective aptamers, were then allowed to dissociate for 10 minutes. […] The evaluation was done using BiaEvaluation Software (BIAcore) to determine the KD values for each flow cell. The average dissociation constant was then determined.

CFP-10 (monomer) [7] = target: T1, CFP-10 (monomer); assay: SPR; CFP-10 immobilised on CM5 chip, BIAcore 3000; details: label: biotin; two predicted stem-loops
Procedure: as §3, §4

CFP-10 (monomer) [8] = target: T1, CFP-10 (monomer); assay: ELONA, 150 nM aptamer; SPR also run, Kd not given; details: label: biotin
CFP-10 (monomer) [9] = target: T1, CFP-10 (monomer); assay: SPR; CFP-10 immobilised on CM5 chip; details: label: biotin
Procedure: as §3, §4

B1: CSIR 2.19 truncated (77-mer) (ssDNA)
DNA: GCCTGTTGTGAGCCTCCTAACTTCCAATAACGATACTTAAACCTGGTCTTTGCCAGTCAATGATAGCATCATGCTTA
modifications: [none (12 nt removed from the 3' end, parent positions 1-77)]
binding result (CFP-10 (monomer) [1]): binds | binding result [2]: binds

B2: CSIR 2.21 (ssDNA)
DNA: GCCTGTTGTGAGCCTCCTAACACACACGTAGCGCCTTGTTGAAGTATACTCAAAGCATTCTCCACGCGGGCATGCTTATTCTTGTCTCCC
binding result [3]: no binding | binding result (ESAT-6 (monomer)): no binding | binding result (CFP-10 (monomer) [4]): binds | binding result [5]: binds

B3: CSIR 2.9 (ssDNA)
DNA: GCCTGTTGTGAGCCTCCTAACTCCGGTCTTCAACATGTCCAATCGAACTTCGGCGGAAATCCTTTACCTGCATGCTTATTCTTGTCTCCC
binding result [3]: no binding | binding result (ESAT-6 (monomer)): no binding | binding result (CFP-10 (monomer) [4]): binds | binding result [5]: binds

B4: CSIR 2.11 (ssDNA)
DNA: GCCTGTTGTGAGCCTCCTAACCCCATCTTATACGTATATGGACTCATCTCGACCCCCGATAGGCTTGGTACATGCTTATTCTTGTCTCCC
binding result ([3]; three predicted stem-loops): no binding | binding result (ESAT-6 (monomer); three predicted stem-loops): no binding | Kd (CFP-10 (monomer) [6]): 8 nM

B5: CSIR 2.19 (ssDNA)
DNA: GCCTGTTGTGAGCCTCCTAACTTCCAATAACGATACTTAAACCTGGTCTTTGCCAGTCAATGATAGCATCATGCTTATTCTTGTCTCCC
binding result ([3]; two predicted stem-loops): no binding | binding result (ESAT-6 (monomer); two predicted stem-loops): no binding | Kd (CFP-10 (monomer) [7]): 1.6 nM

B6: CSIR 2.15 (ssDNA)
DNA: GCCTGTTGTGAGCCTCCTAACTAATGTGGATGCTGCATCGTTAGTATTTCTAGCATGCAATATAGGCATGCATGCTTATTCTTGTCTCCC
binding result [3]: no binding | binding result (ESAT-6 (monomer)): no binding | binding result [5]: binds | binding result (CFP-10 (monomer) [8]): binds

B7: CSIR 2.2 (ssDNA)
DNA: GCCTGTTGTGAGCCTCCTAACCCGTCTAACGAGATTGGGTCTTCATATGGCTCGAAGCGCGCGGTCAGTTCATGCTTATTCTTGTCTCCC
binding result [3]: no binding | binding result (ESAT-6 (monomer)): no binding | Kd (CFP-10 (monomer) [9]): 21.5 nM
